Molecular target: biotinylated SARS-CoV-2 WT RBD (Kactus Biosystems, CoV-VM4BDB) (SARS-CoV-2, UniProt P0DTC2, biotin)
Experiment: ELISA

B1: rabbit monoclonal antibody (RmAb) 9H1 (antibody, V domains shown)
VH: QSVEESGGRLVTPGTPLTLTCTVSGFSLSRYAMSWVRQAPGKGLEWIGIIVDSGHTAYASWAKGRFTISRTSTTVDLKMTSLTTEDTATYFCARETGGGAFYVFEFWGPGTVVTVSS
VL: QVLTQTPSSVSAAVGGTVTINCQASEDIYDNLVWYQQKPGQPPKLLIYDASTLAFGVSSRFRGSGSGTHFTLTMRDVQCDDAATYYCQGEFSCSSGDCTAFGGGTEVVVK
binding result: binds
